Results published in patent US20090074657A1 (IMMUNE PHARMACEUTICALS, published 2009).

How the values were obtained:
[1] = target: human ferritin (human, UniProt P02794 2-183; P02792 2-175, limits assumed); test: method not stated
[2] = target: T1, ferritin in fixed and permeabilized CAPAN-1 cells (human, UniProt P02794 1-183; P02792 2-175); test: Lindmo assay on fixed and permeabilized CAPAN-1 cells, 111In-labelled conjugate
T1 construct: whole, on cells; Endogenous ferritin, over-expressed by CAPAN-1 cells; The cells were fixed and permeabilized, so the ferritin reached is inside the cells; also called cells expressing ferritin
Method: Immunoreactivity of the immunoconjugates was assessed on cells expressing ferritin using the method described by Lindmo et al Determination of the immunoreactive fraction of radiolabeled monoclonal antibodies by linear extrapolation to binding at infinite antigen excess. J Immunol Methods 1984; 72 (1):77-89.
The CAPAN-1 cells are a relevant model for human pancreatic cancer (Kyriazis et al Human pancreatic adenocarcinoma line Capan-1 in tissue culture and the nude mouse:morphologic, biologic, and biochemical characteristics. Am J Pathol 1982; 106(2):250-60.). This cell line was established from a liver metastasis of a human pancreatic ductal adenocarcinoma, is tumorigenic and metastatic in nude mice and over-expresses ferritin. […] CAPAN-1 cells were grown in RPMI, 10% foetal calf serum and 2 mM L-glutamine. Cells were harvested at 70-85% confluence using trypsin, washed and resuspended in PBS-0.5% BSA. They were then fixed and permeabilized using the Intrastain kit (rako) following the manufacturer's instructions. Cells were diluted in PBS-0.5% BSA at concentrations ranging from 1.25×10⁵ to 12×10⁶ cells/ml and 500 μl of these suspensions were incubated with a fixed amount of ¹¹¹In-labeled-Ab (250 μl, 50 ng/ml, approximately 100,000CPM) for 2 hours at room temperature under agitation. Suspensions were centrifuged at 5,000×rpm for 5 minutes, the cells were washed with PBS-BSA and the activity in the pellets was counted. Nonspecific binding was determined by co-incubation of the radiolabelled-antibody with a 1.000-fold excess of cold antibody. The total radioactive counts added to each tube were divided by the cell-bound counts after subtraction of the non-specifically bound counts. These values were plotted against the reciprocal of cell dilution. After linear regression analysis, the immunoreactive fraction was obtained from the reciprocal of the intercept on the y-axis.

[3] = target: T2, human liver ferritin (Calbiochem) (human, UniProt P02794 2-183; P02792 2-175); test: solid-phase radioimmunoassay, ferritin immobilised at 5 µg/ml on tubes, 90Y-labelled conjugate
T2 construct: Natural ferritin is a multimer of acidic (H) and basic (L) subunits; Adsorbed on plates or tubes in the assays; also called pure ferritin
Method: (§1) A solid-phase radioimmunoassay was performed using ¹¹¹In- and ⁹⁰y-labelled antibodies. Maxisorp tunes (Nunc) were incubated overnight at 4° C. with 1.5 to 10 μg/ml ferritin in PBS. After washing, they were blocked by PBS-0.5% BSA for 2 hours at room temperature. 6.25×10³, 12.5×10³ and 25×10³CPM (200 μl) of the antibodies were added in the coated tubes. The activity in each tube was counted in the gamma counter, then the tubes were washed three times with PBS-0.4% Tween-20 and the remaining activity counted. The difference between activities with and without the radiolabelled-antibody solutions indicated the percentage of bound-antibody. For evaluation of non specific binding to ferritin, a 100-fold excess of unconjugated antibody was added to the most concentrated radiolabelled-antibody solution. Non specific binding of the antibody was assessed on uncoated tubes. […] These binding percentages were calculated taking into account small differences in the labelling efficiencies of the three compounds on the day of the experiment.
(§2) ^aFerritin was immobilised at 5 μg/ml on tubes, then the indium or yttrium conjugated antibodies were incubated at three dilutions ([…]) Results are expressed as the mean of the percentage of bound antibody after washing the tubes. Non specific binding of the antibodies were less than 2%. ^bFive serial dilutions of fixed and permeabilized CAPAN-1 cells were incubated with the three radiolabelled compounds. After washing, the activity bound to the cells was counted in a gamma counter. Results were analysed using the GraphPad software; linear regression analysis of (Total CPM/Bound CPM) = f(cells dilution) were very accurate with r² > 0.99 for all three conjugates.

[4] = target: T2, human liver ferritin (Calbiochem); test: solid-phase radioimmunoassay, ferritin immobilised at 5 µg/ml on tubes, 111In-labelled conjugate
Method: as §1, §2

T2 sequence (P02794 2-183 limits assumed, chain 1 of 2): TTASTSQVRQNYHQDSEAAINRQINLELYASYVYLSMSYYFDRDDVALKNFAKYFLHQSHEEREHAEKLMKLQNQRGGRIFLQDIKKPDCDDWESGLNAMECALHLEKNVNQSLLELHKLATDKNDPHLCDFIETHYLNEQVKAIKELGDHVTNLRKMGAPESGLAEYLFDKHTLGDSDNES
T2 sequence (P02792 2-175 limits assumed, chain 2 of 2): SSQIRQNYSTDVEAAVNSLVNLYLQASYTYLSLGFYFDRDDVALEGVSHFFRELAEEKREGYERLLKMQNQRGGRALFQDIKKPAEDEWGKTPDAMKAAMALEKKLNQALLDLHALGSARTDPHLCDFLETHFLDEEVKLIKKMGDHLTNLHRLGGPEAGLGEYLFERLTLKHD
T1 sequence (P02794 whole entry, chain 1 of 2): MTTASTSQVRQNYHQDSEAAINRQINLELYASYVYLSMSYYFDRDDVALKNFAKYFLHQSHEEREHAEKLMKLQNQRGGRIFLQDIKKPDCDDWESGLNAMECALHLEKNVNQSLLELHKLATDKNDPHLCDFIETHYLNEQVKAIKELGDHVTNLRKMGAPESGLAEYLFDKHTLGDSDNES
T1 sequence (P02792 2-175, chain 2 of 2): as the sequence (P02792 2-175 limits assumed, chain 2 of 2) above
human ferritin, sequence (P02794 2-183 limits assumed, chain 1 of 2): as the sequence (P02794 2-183 limits assumed, chain 1 of 2) above
human ferritin, sequence (P02792 2-175 limits assumed, chain 2 of 2): as the sequence (P02792 2-175 limits assumed, chain 2 of 2) above

B1: murine monoclonal anti-ferritin antibody AMB8LK (antibody, V domains shown)
VH: QVQLKESGPGLVAPSQSLSITCTVSGFSLSRYSVHWVRQPPGKGLEWLGTIWGGGSTDYNSVLKSRLSISKDNSKSQVLLKVNSLQTDDTAIYYCASGPYYYTMDYWGQGTSVTVSS
VL: QIVLTQSPAILSASLGEEITLTCSASSSVTFMHWYQQKSGTSPKLLIYTTSNLASGVPSRFSGSGSGTFYSLTISSVEAEDAADYYCHQWSSYPTFGSGTKLEIKR
notes: also called unconjugated AMB8LK; native antibody
Question: For B1, which Kd [1] is on record?
Answer: 5.1 nM

B2: Bz-DOTA-AMB8LK (antibody, V domains shown)
VH: B1 VH
VL: B1 VL
modifications: about 3.2 Bz-DOTA chelates per antibody (pSCN-Bz-DOTA conjugation; sites not stated); 111In or 90Y in the radioimmunoassays
notes: also called DOTA-conjugate; 111In-DOTA-AMB8LK
Question: With B2 as the binder, how does the “immunoreactivity (immunoreactive fraction)” value [2] read?
Answer: 24%

Question: What about the “immunoreactivity (percentage of bound antibody)” value [3] of the same binder?
Answer: 73.2%

Question: And the “immunoreactivity (percentage of bound antibody)” value [4]?
Answer: 76.8%

B3: Bz-DTPA-AMB8LK (antibody, V domains shown)
VH: B1 VH
VL: B1 VL
modifications: about 3 Bz-DTPA chelates per antibody (pSCN-Bz-DTPA conjugation; sites not stated); 111In or 90Y in the radioimmunoassays
notes: also called DTPA conjugate; 111In-DTPA-AMB8LK
Question: What does the source list for B3?
Answer: immunoreactivity (immunoreactive fraction) [2]: 52%; immunoreactivity (percentage of bound antibody) [3]: 100%; immunoreactivity (percentage of bound antibody) [4]: 87%

B4: Bz-CHX-A″-DTPA-AMB8LK (antibody, V domains shown)
VH: B1 VH
VL: B1 VL
modifications: about 3 Bz-CHX-A″-DTPA chelates per antibody (pSCN-Bz-CHX-A″-DTPA conjugation; sites not stated); 111In or 90Y in the radioimmunoassays
notes: also called CHX-DTPA-AMB8LK; CHX-DTPA
Question: With B4 as the binder, how does the “immunoreactivity (immunoreactive fraction)” value [2] read?
Answer: 43%

Question: And the “immunoreactivity (percentage of bound antibody)” value [3]?
Answer: 98.9%

Question: And the “immunoreactivity (percentage of bound antibody)” value [4]?
Answer: 74.8%
